The target in the experiment is rat GLP-1 receptor (rat) (UniProt P32301).

Met-8 GLP-1(7-36)NH2 (peptide) displayed a Percent receptor affinities (cAMP production by the membrane preparation, fluorescent tracer-immuno assay) of 16.6%.

On to Thr-8 GLP-1(7-37)OH (peptide), for which the Percent receptor affinities (cAMP production by the membrane preparation, fluorescent tracer-immuno assay) amounted to 2.8%.

The values above are taken from US5981488.
